Measurements published in publication PMC8316464.

How the values were obtained:
Assay in all cases: SPR; Biacore S200; Bcl-2 family proteins immobilised on CM5 (amine coupling or His-Capture Kit); peptides and flag-tagged proteins as analytes, single-cycle kinetics, HBS-EP, 25 °C; 1:1 Langmuir model; absence of binding probed at 100 nM and 3 µM
[1] = target: His-tagged human Mcl-1 (human) (UniProt Q07820)
Bcl-xL (human) = Bcl-xL (human) (UniProt Q07817)
Bcl-2 (human) = Bcl-2 (human) (UniProt P10415)

Bim BH3 peptide (25-mer, residues 141-165), sequence (peptide): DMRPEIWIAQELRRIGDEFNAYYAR
His-tagged human Mcl-1 (human), sequence (Q07820 whole entry): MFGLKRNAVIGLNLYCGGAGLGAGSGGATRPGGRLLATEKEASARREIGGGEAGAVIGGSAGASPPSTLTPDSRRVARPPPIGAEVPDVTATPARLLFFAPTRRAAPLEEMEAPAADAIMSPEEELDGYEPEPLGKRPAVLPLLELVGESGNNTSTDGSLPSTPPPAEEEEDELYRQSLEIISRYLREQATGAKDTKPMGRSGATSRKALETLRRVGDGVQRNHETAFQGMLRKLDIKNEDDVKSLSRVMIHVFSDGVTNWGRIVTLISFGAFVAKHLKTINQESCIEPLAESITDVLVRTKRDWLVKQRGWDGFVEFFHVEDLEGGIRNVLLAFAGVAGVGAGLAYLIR
Bcl-xL (human), sequence (Q07817 whole entry): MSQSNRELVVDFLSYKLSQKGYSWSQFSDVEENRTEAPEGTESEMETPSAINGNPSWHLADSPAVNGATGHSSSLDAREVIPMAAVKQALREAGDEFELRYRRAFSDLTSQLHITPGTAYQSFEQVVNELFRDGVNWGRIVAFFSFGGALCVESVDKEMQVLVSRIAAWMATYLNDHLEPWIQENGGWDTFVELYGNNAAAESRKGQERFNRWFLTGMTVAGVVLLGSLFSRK

| Kd [1] | Kd (Bcl-xL (human)) | Kd (Bcl-2 (human)) | Substance |
| --- | --- | --- | --- |
| 0.82 nM | 12.2 nM | 115 nM | Bim (A149I) peptide |
| 0.37 nM | 3.3 nM | 14.2 nM | Bim BH3 peptide (25-mer, residues 141-165) |
